Read-outs that look alike come from different tables or passages of the source. Square brackets hold non-standard residues; d marks the D form. Ends that are not written are not given here. fluorescein = N-terminal fluorescein label; pT = C[C@@H](OP(=O)(O)O)[C@H](N)C(=O)O
Experiments:
14-3-3β = 14-3-3β (UniProt P31946); test: fluorescence polarization direct binding; settings: reference: unphosphorylated T2524 peptide; sites T2524
14-3-3γ = 14-3-3γ (UniProt P61981); test: fluorescence polarization direct binding; settings: reference: unphosphorylated T2524 peptide; sites T2524
14-3-3ε = 14-3-3ε (UniProt P62258); test: fluorescence polarization direct binding; settings: reference: unphosphorylated T2524 peptide; sites T2524
14-3-3ζ = 14-3-3ζ (UniProt P63104); test: fluorescence polarization direct binding; settings: reference: unphosphorylated T2524 peptide; sites T2524
14-3-3η = 14-3-3η (UniProt Q04917); test: fluorescence polarization direct binding; settings: reference: unphosphorylated T2524 peptide; sites T2524
14-3-3θ = 14-3-3θ (UniProt P27348); test: fluorescence polarization direct binding; settings: reference: unphosphorylated T2524 peptide; sites T2524
14-3-3σ = 14-3-3σ (UniProt P31947); test: fluorescence polarization direct binding; settings: reference: unphosphorylated T2524 peptide; sites T2524
Q930R/pS935 = test: fluorescence polarisation; direct binding; dilution series of 14-3-3 isoform (at least 5 μM down to picomolar) mixed with 1 nM fluorescein-labelled peptide; 20 mM MOPS pH 7, 150 mM NaCl, 0.005% CHAPS; 384-well plates
pS1444 = test: as above
pS910/pS935 [1] = test: as above
Sequence of pS910/pS935 (Q5S007 906-940): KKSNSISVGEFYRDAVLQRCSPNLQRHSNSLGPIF

pS910/pS935 [2] = test: as above; remark: listed apart in the source
R1441C/pS1444 = molecular target: T1, R1441C/pS1444 (R1441C (stands in the printed letters)); test: as above
T1 construct: LRRK2-derived peptide of the Roc domain with the familial PD mutation R1441C, phosphorylated at S1444; source: synthetic peptide (Peps4LS GmbH)
T1 peptide: fluorescein-LFNIKACAS[pS]SPVILVGT

[3] = molecular target: LRRK2 pS910/pS935 peptide (Homo sapiens, UniProt Q5S007)
Sequence of LRRK2 pS910/pS935 peptide (Q5S007 whole entry, canonical isoform): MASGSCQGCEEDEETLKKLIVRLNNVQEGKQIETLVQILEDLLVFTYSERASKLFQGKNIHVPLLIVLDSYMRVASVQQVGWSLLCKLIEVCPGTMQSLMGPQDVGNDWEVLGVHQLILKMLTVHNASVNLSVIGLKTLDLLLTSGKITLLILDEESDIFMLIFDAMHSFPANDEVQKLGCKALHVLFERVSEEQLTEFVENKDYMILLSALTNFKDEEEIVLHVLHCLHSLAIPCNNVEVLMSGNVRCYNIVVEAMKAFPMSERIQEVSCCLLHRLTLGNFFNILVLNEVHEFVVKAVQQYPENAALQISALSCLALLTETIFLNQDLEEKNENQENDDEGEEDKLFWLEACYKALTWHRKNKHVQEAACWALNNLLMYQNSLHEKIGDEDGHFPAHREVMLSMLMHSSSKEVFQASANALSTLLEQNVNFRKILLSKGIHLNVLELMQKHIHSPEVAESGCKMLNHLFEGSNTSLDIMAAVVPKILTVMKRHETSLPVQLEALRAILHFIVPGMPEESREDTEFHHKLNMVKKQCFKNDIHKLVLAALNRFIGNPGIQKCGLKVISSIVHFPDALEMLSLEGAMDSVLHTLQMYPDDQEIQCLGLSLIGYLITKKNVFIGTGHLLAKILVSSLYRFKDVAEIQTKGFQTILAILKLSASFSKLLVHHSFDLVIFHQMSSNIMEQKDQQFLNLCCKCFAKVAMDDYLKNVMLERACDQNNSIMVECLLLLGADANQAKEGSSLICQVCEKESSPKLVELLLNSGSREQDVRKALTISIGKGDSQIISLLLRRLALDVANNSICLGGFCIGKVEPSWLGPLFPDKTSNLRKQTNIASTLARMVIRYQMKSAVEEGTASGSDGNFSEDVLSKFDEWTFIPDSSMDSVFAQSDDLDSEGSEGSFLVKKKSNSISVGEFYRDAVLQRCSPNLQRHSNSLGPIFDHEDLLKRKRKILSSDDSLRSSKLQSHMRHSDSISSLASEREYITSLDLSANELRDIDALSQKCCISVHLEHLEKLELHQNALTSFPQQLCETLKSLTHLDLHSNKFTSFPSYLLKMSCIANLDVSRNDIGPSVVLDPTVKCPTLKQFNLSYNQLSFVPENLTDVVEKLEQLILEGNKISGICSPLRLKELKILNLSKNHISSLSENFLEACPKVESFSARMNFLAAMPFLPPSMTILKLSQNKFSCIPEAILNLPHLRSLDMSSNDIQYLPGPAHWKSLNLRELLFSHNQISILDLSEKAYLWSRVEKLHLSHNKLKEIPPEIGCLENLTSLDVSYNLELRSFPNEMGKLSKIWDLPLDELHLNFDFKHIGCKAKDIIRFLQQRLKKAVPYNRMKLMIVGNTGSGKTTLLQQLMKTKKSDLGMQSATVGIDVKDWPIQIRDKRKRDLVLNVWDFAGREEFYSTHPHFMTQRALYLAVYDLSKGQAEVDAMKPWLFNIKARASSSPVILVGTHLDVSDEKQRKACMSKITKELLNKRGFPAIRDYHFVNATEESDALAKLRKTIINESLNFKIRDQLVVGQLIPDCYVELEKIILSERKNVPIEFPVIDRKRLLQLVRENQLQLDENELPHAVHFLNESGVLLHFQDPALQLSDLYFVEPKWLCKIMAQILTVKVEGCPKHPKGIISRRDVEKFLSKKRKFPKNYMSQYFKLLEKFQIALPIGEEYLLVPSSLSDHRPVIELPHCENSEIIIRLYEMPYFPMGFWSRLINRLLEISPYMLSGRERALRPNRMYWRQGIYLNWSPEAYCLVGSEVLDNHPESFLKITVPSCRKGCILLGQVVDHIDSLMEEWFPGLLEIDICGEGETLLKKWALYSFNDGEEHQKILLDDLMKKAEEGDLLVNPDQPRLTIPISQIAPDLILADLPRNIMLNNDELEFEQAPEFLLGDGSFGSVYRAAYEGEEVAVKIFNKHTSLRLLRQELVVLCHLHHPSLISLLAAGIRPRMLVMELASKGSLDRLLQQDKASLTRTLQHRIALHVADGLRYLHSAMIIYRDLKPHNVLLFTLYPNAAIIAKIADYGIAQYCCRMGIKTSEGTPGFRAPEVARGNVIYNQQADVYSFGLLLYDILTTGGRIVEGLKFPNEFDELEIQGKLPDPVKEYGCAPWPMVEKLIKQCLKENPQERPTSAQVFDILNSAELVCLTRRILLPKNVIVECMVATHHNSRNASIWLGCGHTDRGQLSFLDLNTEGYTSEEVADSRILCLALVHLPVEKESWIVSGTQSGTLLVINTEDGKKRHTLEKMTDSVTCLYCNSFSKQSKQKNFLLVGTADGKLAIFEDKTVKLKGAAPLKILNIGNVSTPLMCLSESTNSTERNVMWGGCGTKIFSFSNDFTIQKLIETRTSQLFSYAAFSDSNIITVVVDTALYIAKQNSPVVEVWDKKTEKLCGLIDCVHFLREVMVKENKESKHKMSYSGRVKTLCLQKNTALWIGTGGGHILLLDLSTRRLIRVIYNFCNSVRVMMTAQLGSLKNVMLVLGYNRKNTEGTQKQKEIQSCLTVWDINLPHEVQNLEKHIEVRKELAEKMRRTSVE

[4] = molecular target: T2, human 14-3-3 isoform β (recombinant, MBP tag removed) (human, UniProt P31946 1-246); test: fluorescence polarisation; direct binding; dilution series of 14-3-3 isoform (at least 5 μM down to picomolar) mixed with 1 nM fluorescein-labelled peptide; 20 mM MOPS pH 7, 150 mM NaCl, 0.005% CHAPS; 384-well plates; settings: both partners purified
T2 construct: 14-3-3 beta, human; Expressed from pMAL2CX plasmids; also called 14-3-3β; source: E. coli BL21DE3, purified (maltose-agarose, Factor Xa, anion exchange)
T2 sequence (looked up): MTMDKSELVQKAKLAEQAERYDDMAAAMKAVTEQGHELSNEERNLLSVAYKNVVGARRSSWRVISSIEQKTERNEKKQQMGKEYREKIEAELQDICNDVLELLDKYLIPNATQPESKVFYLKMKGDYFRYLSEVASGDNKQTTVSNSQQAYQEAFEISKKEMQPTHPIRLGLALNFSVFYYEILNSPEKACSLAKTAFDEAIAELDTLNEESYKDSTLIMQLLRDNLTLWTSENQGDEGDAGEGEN

[5] = molecular target: T3, human 14-3-3 isoform ε (recombinant, MBP tag removed) (human, UniProt P62258 1-255); test: as above; settings: both partners purified
T3 construct: 14-3-3 epsilon, human; Expressed from pMAL2CX plasmids; also called 14-3-3ε; source: E. coli BL21DE3, purified (maltose-agarose, Factor Xa, anion exchange)
T3 sequence (looked up): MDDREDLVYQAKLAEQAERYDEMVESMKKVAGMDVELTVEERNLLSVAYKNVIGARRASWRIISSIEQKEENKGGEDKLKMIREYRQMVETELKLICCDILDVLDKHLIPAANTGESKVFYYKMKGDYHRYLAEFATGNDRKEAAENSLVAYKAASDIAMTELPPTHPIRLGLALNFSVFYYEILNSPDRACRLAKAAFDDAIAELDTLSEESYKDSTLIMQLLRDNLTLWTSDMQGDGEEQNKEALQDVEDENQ

[6] = molecular target: T4, human 14-3-3 isoform ζ (recombinant, MBP tag removed) (human, UniProt P63104 1-245); test: as above; settings: both partners purified
T4 construct: 14-3-3 zeta, human; Expressed from pMAL2CX plasmids; also called 14-3-3ζ; source: E. coli BL21DE3, purified (maltose-agarose, Factor Xa, anion exchange)
T4 sequence (looked up): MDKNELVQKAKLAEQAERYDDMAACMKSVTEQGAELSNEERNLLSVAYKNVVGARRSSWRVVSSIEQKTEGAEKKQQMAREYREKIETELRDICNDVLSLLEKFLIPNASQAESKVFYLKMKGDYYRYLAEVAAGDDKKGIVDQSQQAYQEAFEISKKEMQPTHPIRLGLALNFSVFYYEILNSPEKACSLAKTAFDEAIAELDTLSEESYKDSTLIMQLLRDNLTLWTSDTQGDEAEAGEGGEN

[7] = molecular target: T5, human 14-3-3 isoform η (recombinant, MBP tag removed) (human, UniProt Q04917 1-246); test: as above; settings: both partners purified
T5 construct: 14-3-3 eta, human; Expressed from pMAL2CX plasmids; also called 14-3-3η; source: E. coli BL21DE3, purified (maltose-agarose, Factor Xa, anion exchange)
T5 sequence (looked up): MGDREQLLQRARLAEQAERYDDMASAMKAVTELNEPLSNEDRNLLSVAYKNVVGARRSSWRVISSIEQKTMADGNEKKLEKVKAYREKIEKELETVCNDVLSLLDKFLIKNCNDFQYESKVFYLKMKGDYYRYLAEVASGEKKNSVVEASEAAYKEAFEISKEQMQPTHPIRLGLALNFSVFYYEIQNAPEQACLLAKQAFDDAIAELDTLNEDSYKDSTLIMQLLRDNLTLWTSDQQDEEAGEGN

[8] = molecular target: T6, human 14-3-3 isoform θ (recombinant, MBP tag removed) (human, UniProt P27348 1-245); test: as above; settings: both partners purified
T6 construct: 14-3-3 theta, human; Expressed from pMAL2CX plasmids; also called 14-3-3θ; source: E. coli BL21DE3, purified (maltose-agarose, Factor Xa, anion exchange)
T6 sequence (looked up): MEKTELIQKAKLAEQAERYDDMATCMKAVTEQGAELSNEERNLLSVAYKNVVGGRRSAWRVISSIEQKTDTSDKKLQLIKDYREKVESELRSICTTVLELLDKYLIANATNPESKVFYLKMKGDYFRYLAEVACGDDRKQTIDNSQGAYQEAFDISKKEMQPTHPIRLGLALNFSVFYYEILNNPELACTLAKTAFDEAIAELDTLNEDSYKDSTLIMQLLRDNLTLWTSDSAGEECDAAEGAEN

[9] = molecular target: T7, human 14-3-3 isoform σ (recombinant, MBP tag removed) (human, UniProt P31947 1-248); test: as above; settings: both partners purified
T7 construct: 14-3-3 sigma, human; Expressed from pMAL2CX plasmids; also called 14-3-3σ; source: E. coli BL21DE3, purified (maltose-agarose, Factor Xa, anion exchange)
T7 sequence (looked up): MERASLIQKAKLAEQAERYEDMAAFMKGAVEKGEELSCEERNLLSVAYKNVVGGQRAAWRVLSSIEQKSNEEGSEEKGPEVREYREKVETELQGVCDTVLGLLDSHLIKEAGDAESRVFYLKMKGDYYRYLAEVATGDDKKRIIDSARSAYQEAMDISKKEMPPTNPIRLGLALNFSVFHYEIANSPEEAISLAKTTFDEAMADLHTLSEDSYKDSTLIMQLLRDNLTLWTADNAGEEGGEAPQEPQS

Molecule: LRRK2 (leucine-rich repeat kinase 2) C-terminus (from UniProt Q5S007) pT2524 peptide
- binding against the reference (14-3-3β): gained
- binding against the reference (14-3-3γ): gained
- binding against the reference (14-3-3ε): gained
- binding against the reference (14-3-3ζ): gained
- binding against the reference (14-3-3η): gained
- binding against the reference (14-3-3θ): gained
- binding against the reference (14-3-3σ): gained

Molecule: human 14-3-3 isoform γ (recombinant, MBP tag removed) (from UniProt P61981 1-247) (natural protein)
- Kd (Q930R/pS935): 11.1 nM
- Kd (pS1444): 106 nM
- Kd (pS910/pS935 [1]): 3.2 nM
- Kd (pS910/pS935 [2]): 4.8 nM
- fold decrease in affinity against pS1444 (R1441C/pS1444): > 30 fold

B1: 14-3-3σ (protein)
chain: MERASLIQKAKLAEQAERYEDMAAFMKGAVEKGEELSCEERNLLSVAYKNVVGGQRAAWRVLSSIEQKSNEEGSEEKGPEVREYREKVETELQGVCDTVLGLLDSHLIKEAGDAESRVFYLKMKGDYYRYLAEVATGDDKKRIIDSARSAYQEAMDISKKEMPPTNPIRLGLALNFSVFHYEIANSPEEAISLAKTTFDEAMADLHTLSEDSYKDSTLIMQLLRDNLTLWTADNAGEEGGEAPQEPQS
modifications: pS910+pS935
- Kd [3]: 61 nM

B2: pT2524 (peptide)
peptide: fluorescein-HIEVRKELAEKMRR[pT]SVE
notes: LRRK2-derived peptide of the very C-terminus, phosphorylated at T2524; source: synthetic peptide (Peps4LS GmbH)
- binding result [4]: binds
- binding result [5]: binds
- binding result [6]: binds
- binding result [7]: binds
- binding result [8]: binds
- binding result [9]: binds
